Experimental data published in patent US20240360238A1 (MAGENTA THERAPEUTICS, published 2024).
Where a chain is given by its changes, count along the chain named.

Experiments:
[1] = target: T1, purified human CD117 ectodomain (R&D Systems #332-SR) (human, UniProt P10721 26-524); assay: BLI; kdis compared to HC-1/LC-1 (Ab1)
T1 construct: extracellular domain; Bought protein; also called c-kit; purified recombinant human CD117 ectodomain

[2] = target: T1, purified human CD117 ectodomain (R&D …); assay: BLI, IgG on anti-human Fc sensor, 33 and 11 nM ectodomain;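 further: Kd, kon and koff are apparent values, with Kd reported as the apparent monovalent affinity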
[3] = target: T1, purified human CD117 ectodomain (R&D …); assay: BLI, purified IgG on sensor, soluble ectodomain; apparent monovalent
[4] = target: T2, purified rhesus CD117 ectodomain (rhesus, UniProt F6V858 26-524); assay: BLI, purified IgG on sensor, soluble rhesus ectodomain; apparent monovalent
T2 construct: extracellular domain; also called rhesus antigen

T1 sequence (P10721 26-524): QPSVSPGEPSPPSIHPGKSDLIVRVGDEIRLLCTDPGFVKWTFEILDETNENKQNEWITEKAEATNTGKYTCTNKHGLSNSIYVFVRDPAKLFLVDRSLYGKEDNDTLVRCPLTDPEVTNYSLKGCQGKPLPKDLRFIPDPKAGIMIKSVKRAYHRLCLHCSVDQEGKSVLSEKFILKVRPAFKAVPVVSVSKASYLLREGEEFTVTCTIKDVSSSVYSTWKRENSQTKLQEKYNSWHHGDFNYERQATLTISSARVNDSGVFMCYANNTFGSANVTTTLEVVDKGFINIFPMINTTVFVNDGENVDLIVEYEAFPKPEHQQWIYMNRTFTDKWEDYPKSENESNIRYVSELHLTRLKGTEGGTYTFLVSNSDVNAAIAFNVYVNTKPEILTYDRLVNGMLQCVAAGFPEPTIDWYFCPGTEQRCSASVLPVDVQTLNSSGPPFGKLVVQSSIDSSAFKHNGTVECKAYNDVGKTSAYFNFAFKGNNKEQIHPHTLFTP

B1: HC-246/LC-246 (Ab246) (antibody, V domains shown)
VH: QVQLVQSGAAVKKPGESLKISCKGSGYRFTTYWIGWVRQMPGKGLEWMGIIYPGDSDTRYSPSFQGQVTISAGKSISTAYLQWSSLKASDTAMYYCARHGRGYNGYEGAFDIWGQGTMVTVSS
VL: DIQMTQSPSSLSASVGDRVTITCRASQGIGSALAWYQQKPGKAPKLLIYDASTLESGVPSRFSGSGSGTDFTLTISSLQPEDFATYYCQQFNGYPLTFGQGTRLEIK
notes: IgG on anti-human Fc sensors; hIgG1/hKappa
In the case of B1, the “Fold improvement (off-rate)” value [1] is reported as 8.9 fold, the Kd [2] is reported as 708 pM and the koff [2] is reported as 0.000255 s⁻¹. For the same binder, the kon [2] was 361000 M⁻¹ s⁻¹.

B2: HC-245/LC-245 (Ab245) (antibody, V domains shown)
VH: B1 VH with Q1E, A10E, Y32S, G73D, R101L, M118L
VL: B1 VL
notes: as for B1
With B2 the “Fold improvement (off-rate)” value [1] was 7.9 fold, the Kd [2] was 813 pM and the koff [2] was 0.000285 s⁻¹. For the same binder, the kon [2] was 350000 M⁻¹ s⁻¹.

B3: HC-247/LC-247 (Ab247) (antibody, V domains shown)
VH: B1 VH
VL: B1 VL with Q27R, G30S, S31D, A32Y, T53N, S56T, F91A, G93S, Y94F, L96I
notes: as for B1
In the case of B3, the “Fold improvement (off-rate)” value [1] is reported as 3.6 fold, the Kd [2] is reported as 1680 pM and the koff [2] is reported as 0.00063 s⁻¹. The kon [2] was 374000 M⁻¹ s⁻¹.

B4: HC-248/LC-248 (Ab248) (antibody, V domains shown)
VH: B1 VH with Q1E, A10E, Y32S, G73D, R101L, M118L
VL: B1 VL with F91L
notes: as for B1
With B4 the “Fold improvement (off-rate)” value [1] was 7.1 fold, the Kd [2] was 922 pM and the koff [2] was 0.000319 s⁻¹. It also gave a kon [2] of 346000 M⁻¹ s⁻¹.

B5: HC-249/LC-249 (Ab249) (antibody, V domains shown)
VH: B1 VH with Q1E, A10E, Y32S, G73D, R101L, M118L
VL: B1 VL with T53N, S56T, F91L
notes: as for B1
B5 was tested, and the “Fold improvement (off-rate)” value [1] was 12 fold, the Kd [2] was 551 pM and the koff [2] was 0.000189 s⁻¹. The kon [2] was 344000 M⁻¹ s⁻¹.

B6: HC-20/LC-20 (Ab20) (antibody, IgG1, V domains shown)
VH: EVQLQQYGAELGKPGTSVRLSCKLSGYKIRNTYIHWVNQRPGKGLEWIGRIDPANGNTIYAEKFKSKVTLTADTSSNTAYMQLSQLKSDDTALYFCAMNYEGYEDYWGQGVMVTVSS
VL: DIQMTQSPSFLSASVGDSVTINCKASQNINKYLNWYQQKLGEAPKRLIHKTDSLQTGIPSRFSGSGSGTDYTLTISSLQPEDVATYFCFQYKSGFMFGAGTKLELK
notes: From rat immunization/hybridoma; purified IgG in BLI; also called 020
B6 showed a Kd [3] of 254 pM, a koff [3] of 0.000202 s⁻¹ and a kon [3] of 794000 M⁻¹ s⁻¹. For the same binder, the Kd [4] was 1390 pM, the koff [4] was 0.000585 s⁻¹ and the kon [4] was 421000 M⁻¹ s⁻¹.

B7: HC-28/LC-28 (Ab28) (antibody, IgG1, V domains shown)
VH: B6 VH with L24V
VL: B6 VL with D52N, T56P, I58F, T85A, K92N, M96T
notes: From rat immunization/hybridoma; purified IgG in BLI; also called 028
B7 was tested, and the Kd [3] was 403 pM, the koff [3] was 0.000368 s⁻¹ and the kon [3] was 914000 M⁻¹ s⁻¹. The Kd [4] was 3600 pM, the koff [4] was 0.00187 s⁻¹ and the kon [4] was 521000 M⁻¹ s⁻¹.

B8: HC-21/LC-21 (Ab21) (antibody, IgG1, V domains shown)
VH: QIQLVQSGPELKKPGESVKISCKASGYTFTDYAVYWVIQAPGKGLKWMGWINTYTGKPTYADDFKGRFVFSLETSASTANLQISNLKNEDTATYFCARGAGMTKDYVMDAWGRGVLVTVS
VL: SYELIQPPSASVTLGNTVSLTCVGDELSKRYAQWYQQKPDKTIVSVIYKDSERPSDISDRFSGSSSGTTATLTIHGTLAEDEADYYCLSTYSDDNLPVFGGGTKLTVL
notes: From rat immunization/hybridoma; purified IgG in BLI; also called 021
With B8 the Kd [3] was 715 pM, the koff [3] was 0.000437 s⁻¹ and the kon [3] was 612000 M⁻¹ s⁻¹. The Kd [4] was 869 pM, the koff [4] was 0.000357 s⁻¹ and the kon [4] was 410000 M⁻¹ s⁻¹.

B9: HC-22/LC-22 (Ab22) (antibody, IgG1, V domains shown)
VH: QVQLKESGPGLVQPSQTLSLTCTVSGFSLTSYLVHWVRQPPGKTLEWVGLMWNDGDTSYNSALKSRLSISRDTSKSQVFLKMHSLQAEDTATYYCARESNLGFTYWGHGTLVTVSS
VL: DIQMTQSPASLSASLEEIVTITCKASQGIDDDLSWYQQKPGKSPQLLIYDVTRLADGVPSRFSGSRSGTQYSLKISRPQVADSGIYYCLQSYSTPYTFGAGTKLELK
notes: From rat immunization/hybridoma; purified IgG in BLI; also called 022
For B9, the Kd [3] was 96.4 pM, the koff [3] was 0.000221 s⁻¹ and the kon [3] was 2.29e+06 M⁻¹ s⁻¹. For the same binder, the Kd [4] was 89.1 pM, the koff [4] was 0.000155 s⁻¹ and the kon [4] was 1.74e+06 M⁻¹ s⁻¹.

B10: HC-24/LC-24 (Ab24) (antibody, IgG1, V domains shown)
VH: EVQLVESGGGLVQSGRSLKLSCAASGFTVSDYYMAWVRQAPTKGLEWVATINYDGSTTYHRDSVKGRFTISRDNAKSTLYLQMDSLRSEDTATYYCARHGDYGYHYGAYYFDYWGQGVMVTVSS
VL: DIVLTQSPALAVSLGQRATISCRASQTVSLSGYNLIHWYQQRTGQQPKLLIYRASNLAPGIPARFSGSGSGTDFTLTISPVQSDDIATYYCQQSRESWTFGGGTNLEMK
notes: From rat immunization/hybridoma; purified IgG in BLI; also called 024
With B10 the Kd [3] was 986 pM, the koff [3] was 0.00011 s⁻¹ and the kon [3] was 111000 M⁻¹ s⁻¹. The Kd [4] was 19600 pM, the koff [4] was 0.000777 s⁻¹ and the kon [4] was 39700 M⁻¹ s⁻¹.

B11: HC-25/LC-25 (Ab25) (antibody, IgG1, V domains shown)
VH: QIQLVQSGPELKKPGESVKISCKASGYTFTDYAIHWVKQAPGQGLRWMAWINTETGKPTYADDFKGRFVFSLEASASTAHLQISNLKNEDTATFFCAGGSHWFAYWGQGTLVTVSS
VL: SYELIQPPSASVTLENTVSITCSGDELSNKYAHWYQQKPDKTILEVIYNDSERPSGISDRFSGSSSGTTAILTIRDAQAEDEADYYCLSTFSDDDLPIFGGGTKLTVL
notes: From rat immunization/hybridoma; purified IgG in BLI; also called 025
B11 was tested, and the Kd [3] was 520 pM, the koff [3] was 0.00153 s⁻¹ and the kon [3] was 2.94e+06 M⁻¹ s⁻¹. For the same binder, the Kd [4] was 810 pM, the koff [4] was 0.00195 s⁻¹ and the kon [4] was 2.41e+06 M⁻¹ s⁻¹.

B12: HC-27/LC-27 (Ab27) (antibody, IgG1, V domains shown)
VH: EVQLVESGGGLVQPGRSMKLSCKASGFTFSNYDMAWVRQAPTRGLEWVASISYDGITAYYRDSVKGRFTISRENAKSTLYLQLVSLRSEDTATYYCTTEGGYVYSGPHYFDYWGQGVMVTVSS
VL: DIQMTQSPSSMSVSLGDTVTITCRASQDVGIFVNWFQQKPGRSPRRMIYRATNLADGVPSRFSGSRSGSDYSLTISSLESEDVADYHCLQYDEFPRTFGGGTKLELK
notes: From rat immunization/hybridoma; purified IgG in BLI; also called 027
With B12 the Kd [3] was 530 pM, the koff [3] was 0.000378 s⁻¹ and the kon [3] was 712000 M⁻¹ s⁻¹. The Kd [4] was 890 pM, the koff [4] was 0.000275 s⁻¹ and the kon [4] was 309000 M⁻¹ s⁻¹.
